Measurements taken from article PMC9368491.

Target: β-catenin (endogenous) (UniProt P35222)
Test: anti-Cav-1 IP, β-catenin blot
Details: reference: WT Cav-1, DMSO; sites Y14

Substance: Caveolin-1 (Cav-1) (from UniProt Q03135) Y14F Cav-1, DMSO
- binding against the reference: weaker
